# In the supplement of paper PMC9112550, “Optimization of the antimicrobial peptide Bac7 by deep mutational scanning” (BMC Biology, 2022):
# Tested on: Escherichia coli TOP10
# Test: shrunken log2 fold change of peptide-encoding DNA abundance (4.5 h post-induction vs induction); higher = less antimicrobial activity (less host growth inhibition)
# Settings: time post-induction: 4.5 h; library: site-saturation at positions 5, 18, 19, 20
# 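Also: peptides expressed intracellularly from a pBAD plasmid library in pooled LB shake-flask culture, induced with 0.3% L-arabinose, DNA abundance read by NGS, three biological replicates, DESeq2 with apeglm shrinkage.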
row,Sequence,shrunken log2 fold change
1,RRIRVRPPRLPRPRPRPTKFPRP,-0.248
2,RRIRHRPPRLPRPRPRPHDMPRP,-0.291
3,RRIRQRPPRLPRPRPRPVGPPRP,0.231
4,RRIRMRPPRLPRPRPRPQTEPRP,0.12
5,RRIRPRPPRLPRPRPRPPQRPRP,0.43
6,RRIRPRPPRLPRPRPRPTNKPRP,-0.208
7,RRIRDRPPRLPRPRPRPSECPRP,-0.043
8,RRIRWRPPRLPRPRPRPVIHPRP,0.162
9,RRIRDRPPRLPRPRPRPSGAPRP,0.0348
10,RRIRTRPPRLPRPRPRPMCKPRP,-0.0839
11,RRIRLRPPRLPRPRPRPVFFPRP,0.0612
12,RRIRQRPPRLPRPRPRPNRLPRP,0.0179
13,RRIRNRPPRLPRPRPRPHKYPRP,-1.52
14,RRIRVRPPRLPRPRPRPEEGPRP,-0.01
15,RRIRKRPPRLPRPRPRPGDNPRP,0.046
16,RRIRRRPPRLPRPRPRPCDDPRP,-0.0703
17,RRIRQRPPRLPRPRPRPQPRPRP,0.48
18,RRIRNRPPRLPRPRPRPFQDPRP,-0.00135
19,RRIRTRPPRLPRPRPRPELPPRP,0.499
20,RRIRQRPPRLPRPRPRPPMSPRP,-0.139
21,RRIRQRPPRLPRPRPRPWHYPRP,-0.484
22,RRIRDRPPRLPRPRPRPNMHPRP,1.35
23,RRIRTRPPRLPRPRPRPCICPRP,-0.119
24,RRIRVRPPRLPRPRPRPSDEPRP,-0.463
25,RRIRLRPPRLPRPRPRPGHPPRP,0.0236

row,Sequence,shrunken log2 fold change
1,RRIRARPPRLPRPRPRPSAWPRP,0.797
2,RRIRARPPRLPRPRPRPGRKPRP,0.43
3,RRIRPRPPRLPRPRPRPDMPPRP,-0.302
4,RRIRGRPPRLPRPRPRPPRLPRP,0.702
5,RRIRQRPPRLPRPRPRPGYMPRP,-0.131
6,RRIRVRPPRLPRPRPRPQKLPRP,-0.0565
7,RRIRHRPPRLPRPRPRPTDIPRP,-0.668
8,RRIRVRPPRLPRPRPRPHHHPRP,-0.611
9,RRIRVRPPRLPRPRPRPFQSPRP,-0.00568
10,RRIRARPPRLPRPRPRPGAMPRP,0.959
11,RRIRQRPPRLPRPRPRPRPPPRP,1.08
12,RRIRPRPPRLPRPRPRPRILPRP,0.0605
13,RRIRHRPPRLPRPRPRPRANPRP,0.177
14,RRIRGRPPRLPRPRPRPTIWPRP,0.872
15,RRIRIRPPRLPRPRPRPYICPRP,-0.393
16,RRIRERPPRLPRPRPRPHLCPRP,-0.101
17,RRIRMRPPRLPRPRPRPGGNPRP,0.671
18,RRIRPRPPRLPRPRPRPPYPPRP,-0.0364
19,RRIRSRPPRLPRPRPRPGHSPRP,0.0297
20,RRIRMRPPRLPRPRPRPNDTPRP,0.11
21,RRIRPRPPRLPRPRPRPPFNPRP,-0.126
22,RRIRDRPPRLPRPRPRPSTMPRP,0.0367
23,RRIRCRPPRLPRPRPRPDSEPRP,0.0197
24,RRIRLRPPRLPRPRPRPDLLPRP,-0.0261
25,RRIRPRPPRLPRPRPRPDLLPRP,-0.0805

row,Sequence,shrunken log2 fold change
1,RRIRQRPPRLPRPRPRPNRTPRP,0.0639
2,RRIRFRPPRLPRPRPRPLSTPRP,-0.47
3,RRIRKRPPRLPRPRPRPDDKPRP,0.107
4,RRIRNRPPRLPRPRPRPIRDPRP,0.201
5,RRIRDRPPRLPRPRPRPLLKPRP,0.437
6,RRIRYRPPRLPRPRPRPQQSPRP,-0.454
7,RRIRHRPPRLPRPRPRPLVKPRP,-0.29
8,RRIRDRPPRLPRPRPRPFMWPRP,-0.102
9,RRIRRRPPRLPRPRPRPDGAPRP,0.766
10,RRIRLRPPRLPRPRPRPHKHPRP,-0.53
11,RRIRTRPPRLPRPRPRPINEPRP,-0.405
12,RRIRERPPRLPRPRPRPRDSPRP,0.0154
13,RRIRFRPPRLPRPRPRPMPAPRP,0.283
14,RRIRLRPPRLPRPRPRPDDIPRP,-0.0521
15,RRIRRRPPRLPRPRPRPEVSPRP,0.214
16,RRIRVRPPRLPRPRPRPMDNPRP,0.0397
17,RRIRPRPPRLPRPRPRPNEMPRP,0.0125
18,RRIRPRPPRLPRPRPRPVQKPRP,0.0644
19,RRIRARPPRLPRPRPRPACVPRP,0.707
20,RRIRWRPPRLPRPRPRPCFGPRP,-0.119
21,RRIRHRPPRLPRPRPRPLHLPRP,-0.0926
22,RRIRNRPPRLPRPRPRPVWAPRP,0.599
23,RRIRYRPPRLPRPRPRPKCAPRP,0.0118
24,RRIRNRPPRLPRPRPRPTQNPRP,0.332
25,RRIRPRPPRLPRPRPRPTYEPRP,0.0844

row,Sequence,shrunken log2 fold change
1,RRIRVRPPRLPRPRPRPARSPRP,-0.024
2,RRIRGRPPRLPRPRPRPFDNPRP,0.23
3,RRIRGRPPRLPRPRPRPNPCPRP,0.102
4,RRIRIRPPRLPRPRPRPYNFPRP,-0.99
5,RRIRKRPPRLPRPRPRPWTQPRP,0.0628
6,RRIRKRPPRLPRPRPRPCDQPRP,-0.0132
7,RRIRDRPPRLPRPRPRPISGPRP,0.0039
8,RRIRARPPRLPRPRPRPRIGPRP,0.267
9,RRIRKRPPRLPRPRPRPACKPRP,0.0609
10,RRIRMRPPRLPRPRPRPYIVPRP,-0.00174
11,RRIRYRPPRLPRPRPRPHWTPRP,-0.0421
12,RRIRWRPPRLPRPRPRPFSMPRP,-0.0921
13,RRIRMRPPRLPRPRPRPGWWPRP,-0.026
14,RRIRKRPPRLPRPRPRPQLFPRP,0.364
15,RRIRSRPPRLPRPRPRPTWSPRP,-0.0422
16,RRIRVRPPRLPRPRPRPNMQPRP,-0.33
17,RRIRNRPPRLPRPRPRPAQKPRP,0.918
18,RRIRRRPPRLPRPRPRPRIKPRP,0.142
19,RRIRMRPPRLPRPRPRPGQYPRP,-0.00987
20,RRIRARPPRLPRPRPRPEMAPRP,0.739
21,RRIRPRPPRLPRPRPRPINCPRP,-0.126
22,RRIRWRPPRLPRPRPRPFIQPRP,-0.437
23,RRIRGRPPRLPRPRPRPHDWPRP,0.46
24,RRIRWRPPRLPRPRPRPLSFPRP,-0.0327
25,RRIRYRPPRLPRPRPRPSMGPRP,-0.613

row,Sequence,shrunken log2 fold change
1,RRIRFRPPRLPRPRPRPNGMPRP,-0.0957
2,RRIRPRPPRLPRPRPRPSCCPRP,-0.0575
3,RRIRMRPPRLPRPRPRPDQCPRP,0.0192
4,RRIRVRPPRLPRPRPRPQAIPRP,-0.0973
5,RRIRGRPPRLPRPRPRPFAGPRP,0.00108
6,RRIRYRPPRLPRPRPRPSLCPRP,-0.109
7,RRIRNRPPRLPRPRPRPGMRPRP,0.504
8,RRIRARPPRLPRPRPRPVNVPRP,-0.169
9,RRIRWRPPRLPRPRPRPKSCPRP,0.178
10,RRIRTRPPRLPRPRPRPNLSPRP,0.00227
11,RRIRNRPPRLPRPRPRPTFTPRP,-0.245
12,RRIRKRPPRLPRPRPRPCNDPRP,-0.0241
13,RRIRSRPPRLPRPRPRPDAFPRP,0.387
14,RRIRQRPPRLPRPRPRPAFMPRP,-0.0902
15,RRIRQRPPRLPRPRPRPQLWPRP,-0.135
16,RRIRGRPPRLPRPRPRPKFFPRP,0.36
17,RRIRYRPPRLPRPRPRPDSVPRP,-0.338
18,RRIRNRPPRLPRPRPRPENYPRP,-0.553
19,RRIRIRPPRLPRPRPRPWLGPRP,0.0945
20,RRIRDRPPRLPRPRPRPEKRPRP,-0.0167
21,RRIRQRPPRLPRPRPRPQYTPRP,-0.249
22,RRIRFRPPRLPRPRPRPAKNPRP,-0.0212
23,RRIRDRPPRLPRPRPRPSDWPRP,0.137
24,RRIRRRPPRLPRPRPRPCSEPRP,-0.0216
25,RRIRDRPPRLPRPRPRPPDQPRP,0.72

row,Sequence,shrunken log2 fold change
1,RRIRTRPPRLPRPRPRPNLIPRP,-0.408
2,RRIRYRPPRLPRPRPRPPETPRP,-0.0226
3,RRIRHRPPRLPRPRPRPQEHPRP,-0.389
4,RRIRMRPPRLPRPRPRPTFNPRP,-0.283
5,RRIRARPPRLPRPRPRPGKNPRP,0.124
6,RRIRQRPPRLPRPRPRPQFCPRP,-0.142
7,RRIRSRPPRLPRPRPRPECQPRP,-0.00188
8,RRIRIRPPRLPRPRPRPMMFPRP,-0.0225
9,RRIRFRPPRLPRPRPRPYLAPRP,-0.425
10,RRIRMRPPRLPRPRPRPEPTPRP,2.58
11,RRIRGRPPRLPRPRPRPHEAPRP,-0.000398
12,RRIRFRPPRLPRPRPRPCVQPRP,-0.182
13,RRIRVRPPRLPRPRPRPWPFPRP,0.14
14,RRIRYRPPRLPRPRPRPFHFPRP,-0.19
15,RRIRIRPPRLPRPRPRPYFNPRP,-1.29
16,RRIRKRPPRLPRPRPRPQTKPRP,0.069
17,RRIRGRPPRLPRPRPRPHQPPRP,0.18
18,RRIRFRPPRLPRPRPRPGYWPRP,0.0724
19,RRIRMRPPRLPRPRPRPSGCPRP,0.44
20,RRIRRRPPRLPRPRPRPFLCPRP,0.219
21,RRIRVRPPRLPRPRPRPNIYPRP,-0.25
22,RRIRMRPPRLPRPRPRPQETPRP,-0.00161
23,RRIRGRPPRLPRPRPRPSAFPRP,1.1
24,RRIRCRPPRLPRPRPRPFIRPRP,-0.249
25,RRIRYRPPRLPRPRPRPLIAPRP,-0.668
